The record followed here is patent publication US20230357429A1 (JANUX THERAPEUTICS, published 2023).

Where no end group is shown, it is not given here.

In assay [1] the target is T1, TCE-14 (anti-CD3 scFv F104A; anti-TROP2 wt).
T1 construct: scFv on the Fab heavy chain; also called TCE-14 (F104A)
The experiment in a line: competition ELISA, TCE on captured CD3.

The target in assay [2] is T2, TCE-20 (anti-CD3 scFv S110A; anti-TROP2 wt).
T2 construct: scFv on the Fab heavy chain; also called TCE-20 (S110A)
As to the kind of experiment: competition ELISA, TCE on captured CD3.

The target of assay [3] is T3, TCE-13 (anti-CD3 scFv N103A; anti-TROP2 wt).
T3 construct: scFv on the Fab heavy chain; also called TCE-13 (N103A)
The experiment in a line: competition ELISA, TCE on captured CD3.

Assay [4] addresses T4, TCE-26 (anti-CD3 scFv W233A; anti-TROP2 HC wt).
T4 construct: scFv on the Fab heavy chain; also called TCE-26 (W233A)
As to the kind of experiment: competition ELISA, TCE on captured CD3.

The target in assay [5] is T5, TCE-31 (anti-CD3 scFv W238A; anti-TROP2 wt).
T5 construct: scFv on the Fab heavy chain; also called TCE-31 (W238A)
The experiment in a line: competition ELISA, TCE on captured CD3.

Assay [6] deals with T6, TCE-22 (anti-CD3 scFv W112A; anti-TROP2 wt).
T6 construct: scFv on the Fab heavy chain; also called TCE-22 (W112A)
The experiment in a line: competition ELISA, TCE on captured CD3.

The target in assay [7] is T7, TCE-33 (anti-CD3 scFv F240A; anti-TROP2 wt).
T7 construct: scFv on the Fab heavy chain; also called TCE-33 (F240A)
The experiment in a line: competition ELISA, TCE on captured CD3.

The target of assay [8] is T8, TCE-1 (anti-CD3 scFv wt; anti-TROP2 Fab wt).
T8 construct: anti-CD3 scFv fused to the N-terminus of the anti-TROP2 Fab heavy chain; also called TCE-1 (wt)
The experiment in a line: competition ELISA: peptide titrated and pre-incubated with a constant concentration of TCE-1, binding of TCE-1 to plate-bound biotinylated CD3 detected.

The target of a further assay is T9, Peptide-77 (cysteine pairing not given here; also: biotinylated, site not given here).
T9 construct: mask peptide for the CD3 scFv
T9 peptide: YLCGPDTDETLACY
The experiment in a line: ELISA, TCE on captured biotin-peptide.

For the next assay, the target named is T10, Peptide-76 (cysteine pairing not given here; also: biotinylated, site not given here).
T10 construct: mask peptide for the CD3 scFv
T10 peptide: YLCGPDADETLACY
As to the kind of experiment: ELISA, TCE on captured biotin-peptide.

Another assay addresses T11, Peptide-70 (cysteine pairing not given here; also: biotinylated, site not given here).
T11 construct: mask peptide for the CD3 scFv
T11 peptide: YLCGPDGDETLACY
The experiment in a line: ELISA, TCE on captured biotin-peptide.

The target of another assay is T12, TBD-1 wt.
T12 construct: Fab; the heavy chain entry is VH-CH1; also called wild-type anti-TROP2 Fab (hRS7); TROP2 Fab
As to the kind of experiment: competition ELISA: peptide titrated and pre-incubated with a constant concentration of TBD-1, then added to plate-bound biotinylated TROP2; blocked ligand TROP2 (2.m7).

Assay [9] has as its target T13, TCE-11 (anti-CD3 scFv H101A; anti-TROP2 wt).
T13 construct: scFv on the Fab heavy chain; also called TCE-11 (H101A)
As to the kind of experiment: competition ELISA, TCE on captured CD3.

Assay [10] has as its target T14, TCE-10 (anti-CD3 scFv R100A; anti-TROP2 wt).
T14 construct: scFv on the Fab heavy chain; also called TCE-10 (R100A)
As to the kind of experiment: competition ELISA, TCE on captured CD3.

B1: Peptide-69 (peptide)
peptide: SECLVDLQSDPCYW
modifications: cysteine pairing not given here; also: biotinylated, site not given here
notes: mask peptide for the CD3 scFv
As to B1, the IC50 in assay [1] was determined as 11.8 µM; in assay [2] it was 4.24 µM; in assay [3], 50.5 µM; in [4] it was 2.02 µM; in [5] it was 6.57 µM; in assay [6], 56.8 µM. The molecule also registered a 50% inhibitory concentration (IC50) in assay [7] of 0.81 µM. Also, the binding result in [8] is on record as “binds”.

B2: TCE-37 (anti-CD3 scFv F104A; anti-TROP2 F108A) (bispecific antibody)
light: DIQLTQSPSSLSASVGDRVSITCKASQDVSIAVAWYQQKPGKAPKLLIYSASYRYTGVPDRFSGSGSGTDFTLTISSLQPEDFAVYYCQQHYITPLTFGAGTKVEIKRTVAAPSVFIFPPSDEQLKSGTASVVCLLNNFYPREAKVQWKVDNALQSGNSQESVTEQDSKDSTYSLSSTLTLSKADYEKHKVYACEVTHQGLSSPVTKSFNRGEC
heavy: not shown
notes: scFv on the Fab heavy chain
On to B2, for which the EC50 was 0.00921 µM in the assay with Peptide-77, 0.00144 µM in the assay with Peptide-76 and 0.00034 µM with Peptide-70.

B3: TCE-7 (anti-CD3 scFv wt; anti-TROP2 F108A) (bispecific antibody)
light: B2 light
heavy: not shown
notes: scFv on the Fab heavy chain
Consider B3, for which the 50% effective concentration (EC50) with Peptide-77 was determined as 0.0632 µM; with Peptide-76 it was 0.00456 µM; with Peptide-70, 0.0004 µM.

B4: Peptide-21 (peptide)
peptide: IDFCSLYQWPVCGT
With B4, in the assay with TBD-1 wt, the binding result was “binds”.

B5: Peptide-65 (peptide)
peptide: QGCGTIADPEPHCW
modifications: cysteine pairing not given here; also: biotinylated, site not given here
notes: mask peptide for the CD3 scFv
In the case of B5, the concentration for half-maximal inhibition (IC50) in assay [1] came to 6.46 µM; in [2] it was 6.54 µM; in assay [9], 85 µM; in [4], 2.64 µM; in [5] it was 17.7 µM; in assay [7], 0.62 µM. For the same molecule, the “IC50 (read off the curve)” value in [8] is around 2 µM.

B6: Peptide-19 (peptide)
peptide: PDFCQLYNWPVCAG
On to B6, for which, in the assay with TBD-1 wt, the binding result was “binds”.

B7: Peptide-23 (peptide)
peptide: VDFCYQYGWPICSR
Regarding B7, in the assay with TBD-1 wt, the binding result is listed as “binds”.

B8: Peptide-71 (peptide)
peptide: VDCGPDGDESILCY
modifications: cysteine pairing not given here; also: biotinylated, site not given here
notes: mask peptide for the CD3 scFv
Consider B8, for which the IC50 in assay [10] is 1.35 µM; in [2], 11.8 µM; in assay [3], 5.08 µM; in [9], 3.72 µM; in assay [4] it was 75.4 µM; in assay [5], 51 µM. Also, the concentration for half-maximal inhibition (IC50) in [6] is 13.8 µM; in assay [7], 4.83 µM. Further, the binding result in assay [8] is recorded as “binds”.

B9: Peptide-22 (peptide)
peptide: VDFCTIYKWPVCEG
For B9, in the assay with TBD-1 wt, the binding result is recorded as “binds”.

B10: Peptide-68 (peptide)
peptide: DWCWYSPDNDGLCD
modifications: cysteine pairing not given here; also: biotinylated, site not given here
notes: mask peptide for the CD3 scFv
On to B10, for which the concentration for half-maximal inhibition (IC50) in assay [1] was found to be 1.08 µM; in assay [10], 88.9 µM; in assay [2] it was 0.4 µM; in assay [4] it was 43 µM; in [5], 9.47 µM; in assay [7], 7.35 µM. For the same molecule, in [8], the binding result is “binds”.
